Laboratory results published in the nanobody polyreactivity screen of Harvey et al. (2022).

Assay: yeast display, Sf9 membrane polyspecificity reagent, FACS + sequencing; frameworks hold sequencing errors
Summary of the method: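 Galactose-induced (36–48 hours) yeast carrying a synthetic nanobody display library were exposed to 10% biotinylated, detergent-solubilized Sf9 membrane reagent at 4 °C for 1 hour. FACS followed streptavidin microbead enrichment, using low and high (top ~1%) gates for expression (anti-HA) and reagent binding (streptavidin). Colony PCR, MiSeq 2 × 250 sequencing and CDR-length filtering followed. Labels for polyreactivity reflect the gate of origin.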

Sequence	polyreactivity (PSR sort gate)
QVQLVESGGGLVQAGGSLRLSCAASGSIFHKNAMGWYRPAPGNERELVATITSDGSTNYADSVKGRFTISRDNEKNTVYLQMNSLKPEDTAVYDCAAYSQVGGYDYWGQGTQVTVSS	low polyreactivity
QVQHVESGGGLVQAGGSLRLSCAASGFTLFWNDMGWYRQAPGKERELVAAITSGDDTYADSVKGRFTISRDNAKNTVYLQMNSLKPEDTAVYYCNKDDPLRNVAQVILYEFYYWGQGTQVTVSS	low polyreactivity
QVQLVASAGGLVQAGRSLRLSCAASGRIFSWYTMGWYRQAPGKERELVADITYSGGSTYYADSVKGRFTISRDNAKNTVYLQMNSLKPEDTAVVYCIADPRWYHFEYGYWGQGTQVTVSS	high polyreactivity
QVQIVESGGGLVQAGRSLRLSCAASGIIFRRYAMGWYRQAPGKETELVAAISSRGGSTYYADSVKGRFTISRDNAKNTVYLQMNSLKPEDTAVYYCAKGFSGTGGSGDFGYWGQGTQVTVSS	high polyreactivity
QVQLVESGGGLVQAGGSLRLSCAASGSIFPSNTMGWYRQAPGKERELVATIRWNTGSTYYADSVKGRFTISRDNAKNTVYLQMNSLKPEDTAVYYCAALYVWLWGYRFDYWGQGTQVTVSS	high polyreactivity
QVQLVESGGGLGQAGGSLRLSCAASGSTFIDNAMGWYRQAPGKERELVAAINSSGGNTYYADSVKWRFTISRDNAKNTVYLQMNSLKPEDTAVYYCNAEFYVLYFYDYEYWGQGTQVTLSS	low polyreactivity
QVQLVESGGGLVQAGGSLRLSCAASGSIFYWNAMGWYRQAPWKERELVASINWSGSTYYADSVKGSFTISRDNAKNTVYLQMNSLKPEDTAVYYCNTDPRVSDASADMEYWGQGTQVTVSS	high polyreactivity
QVQRVESGGGLVQAGGSLRLSCAASGFIFYFYAMRWYRQAPGNERELVAAITWSGTDTYYADSVKGRFTISRDNAKNTVYLQMNSLKPEDTAVYYCARSEHSLVSIKVDYWGQGTQVTVSS	low polyreactivity
QVQLVESGRGLVQAGCSLRLSCAASGRTFSLYAMGWYRQAPGKERELVAAITLSAGSTYYADSVKGRFTISRDNEKNTVYLQMNSLKPEDTAVYYCNTRTLVAMGYWGQGTQVTVSS	high polyreactivity
QVQLVESGGGLVQAGGSLRLSCAASGLTQYKNGMGWYRQAPGKERELVAVISRSGGRTYYADSVKGRFTISRDNAKNTVYLQMNSLKPEDTAVYYCAARQYGPRYTYYYWGQGTQVTVSS	high polyreactivity
QVQLVESGAGLVQAGGSLRVSCAASGSIFSYYTMGWYRQPPGKERELVAAITYRGGSTYYADSVKGRFTISRDNAKNTVYLQRNSLKPEDTAVYYCAARTRNGAGYYWGQGTQVTVSS	high polyreactivity
EVQLVESGGGLVQSGGSLRLSSAASGSIFRYYAMGWYRQAPGKERELVAAITGSTGRTYYADSVKGRFTISRDNAKNTVYLQMNSLKPEDTAVYYCAARSRYYEYDYWGQGTQVTVSS	low polyreactivity
QVHLVESGGGLVQAGGSLRLSCAASGRILVQNDMGWYRQAPGKERELVAAIRSDGSTSYADSVKGRFTISRDNAKNTVYLQMNSLKPEDTAVYYCAARIDWTGGEYDYWGQGTQVTVSS	low polyreactivity
QVQLVESGGGLVQAGGSLRLSCAASGIIFTQNGMGWYRQAPGKERELVAAISWSAGGTYYADSVKGRFTISRYNAKNTVLLQMNSLKPEDTAVYYCNARVFNVFREFNSWGQGTQVTVSS	low polyreactivity
QVHLVESGGGLVQAGGSLRLSCAASGRIFDYYAMGWYRQAPGKERELVARITSGGTTNYADSVKGRFTISRDNENNTVYLQMNSLKPEYTEVYYCKAHDYSDPLQMDYWGQGTQVTVSS	low polyreactivity
QVQLVESGGGLVQAGGSLRLSCAASGRIFYGYTMGWYRQAPGKERELVASITIRGSRTYYADSVKGRFTISRDNAKNTVYLQMNSLKPEDTAVYYCAADFVPARTVHRYDYWGQGTQVTVSS	low polyreactivity

Sequence	polyreactivity (PSR sort gate)
QVQLVESGGGLVQAGGSLRLSCAASGSIFKYYTMGWYRQAPGKERELVAAITYTGGRTYYADSVKGRFTISRDNAKNTVYLQMNSPKPEDTAVYYCAKDGPATVRRGYDYWGQGTQVTVSS	high polyreactivity
QVQLVESGGGLVQAGGSLRLSCAASGFIFPRYAMGWYRQAPGKERELVAAISYSGGSTYYADSVKGRFTISRDNAKNTVYLQMNSLKPEDTAVYYCNAYFLSQYQRAYRDDYWGQGTQVTVST	high polyreactivity
QVQLVESGGGLVQAGGSLRLSCAASGLTFANYAIGWYRQAPGKERELVAAISTWSGGSTYYADSVKGRFTISRDNAKNTVYLQMNSLKPEDTAVYYCAARRYSRGRLPYDYWGQGTQVTVSS	high polyreactivity
EVQLVESGGGLVQAGGSLRLSCAASGSIFYTNTMGWYRQAPGKERELVATGSTYYADSVKGRFTISRDNAKNTVYLQMNSLKPEDTAVYYCAKRGDFLTTRYESGSAASDYWGQGTQVTVSS	low polyreactivity
QVQLVESGGGLVQAGGSLRLSCAASVSTFFRYAKRWYRQAPGKERELVAAISKRGGSTSYADSVKGRFTISRDNAKNTVYLQMNSLKPEDTAVYYCATVYWLFARYDYWGQGTQVTVSS	high polyreactivity
QVQLVESGGGLVQAGGSLRLSCAASGSTFARYAMGWYRQAPGKERELVAAITWSGGSTYYADSVKGRFTISRDNAKNTVYLQMNSLKPEDTAVYYCAARRRVGYYWGQGTQVTVSS	high polyreactivity
QVQLVESGGGLVQAGGSLRLSCAASGYIFIRNAMGWYRQAPGKERELVAAISWTGGSTYYADSVKGRFTISRDNAKNTVYLQMNSLKPEDTAVYYCNKYYRAWLLWDYGYWGQGTQVTVSS	high polyreactivity
QDQHVESVGGLVQAGGRLRLSSAASGLIFFDSPMVSDRQAPGKERELVAAISTTGGSTYYADSVKGRCTISRDNAKNSVYLEMNSLKPEDTAVYYCNARFVHHSWGTNYYWGQGTQVTVSS	high polyreactivity
QVQLVDSGGGLVQAGGSLRLSCAASGFTIHYKAMGWYRQAPGKERELVATISKSAGITSYADSVKGRFTISRDNAKNTVYLQMNSLNPEDTAVYYCAADKSYRRVYYWGQGTQVTVSS	low polyreactivity
QVQLVESGGGLVQAGGSLRLSCAASGYILRSNAMGWYRQAPGKEREFVAAITYSGGSTYYADSVKGRFTISRDNAKNTVYFQRNSLKPEATAVYSCSKTTRYRRGYGYWGQGTEVTVSS	low polyreactivity
QVQLVESGGGLVQAGGSLRLSCAASGRIYYVYGMGWYRQAPGKERELVAAITRSGGSTYYADSVKGRFTISRDNAKNTVYLQMNSLKPEDTAVYYCAASVPYYTGYYYNAYEYWGQGTQVTVSS	high polyreactivity
QVQLEESGGGLVQAGGSLRLSCAASGITFNSYAMGSYRQAPGKERELVAAISGSGSSTYYADSVKGRFTISRDNAKNTVYLQMTSLKPEDTAVYYCAATGYSSWTFYTHEYWGQGTQVTVSS	low polyreactivity
QVQLVESGGGLVQAGGSLRLSCAASGSTFYANAMGWYRQAPGKERELVAAITSGGSTNYADSVKGRFTISRDNAKNTVYLQMNSLKPEDTAVYYCATPVNRERHAEDYWGQGTQVTVSS	low polyreactivity
QVQLVESGGGLVQAGGSLRLSCAASGRTFYQYTMGWYRQAPGKERELVATISDSTNYADSVKGRFTISRDNAKNTVYLQMNSLKPEDTAVYYCNARVRGLGKYESWGQGTQVTVSS	low polyreactivity
QVQLVESGGGLVQAGGSLRLSCAASGSTFAWYAMGWYRQAPGKERELVAGIWNTGRTYYADSVKGRFTISRDNAKNTVYLLMHSLKPEDTAVYYCAALYNSPNVTYYYWGQGTQVTVSS	high polyreactivity
QVQLVESGGGLVQAGGSLRLSCASSGSIFKAYAMGLSRQAPGKERELVAAIRGSGGRTYYADSVKGRFTISRDYAKNTVYLQMNSLKPEDTAVYYCNTVRSTPNGLDYDYWGQGTQVTVSS	low polyreactivity
